Data set [1] addresses T1, LMAN1/ERGIC53 (endogenous) (human (endogenous in 293A)), P49257.
T1 chain: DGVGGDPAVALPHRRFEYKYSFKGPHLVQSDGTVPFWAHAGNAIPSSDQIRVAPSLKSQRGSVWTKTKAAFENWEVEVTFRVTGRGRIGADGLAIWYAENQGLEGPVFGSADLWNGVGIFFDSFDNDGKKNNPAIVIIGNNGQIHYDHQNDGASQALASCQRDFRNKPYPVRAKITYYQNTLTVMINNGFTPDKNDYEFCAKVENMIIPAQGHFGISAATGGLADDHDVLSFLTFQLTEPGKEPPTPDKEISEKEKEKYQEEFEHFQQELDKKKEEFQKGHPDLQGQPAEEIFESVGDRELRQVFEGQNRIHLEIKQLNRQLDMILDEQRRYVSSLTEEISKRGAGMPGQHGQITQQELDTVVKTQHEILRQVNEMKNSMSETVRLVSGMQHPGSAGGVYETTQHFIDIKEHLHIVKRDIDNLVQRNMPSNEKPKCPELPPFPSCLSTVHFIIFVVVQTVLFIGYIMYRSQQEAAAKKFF
Kind of data set: SDS/PAGE without reducing agent and immunoblot. Particulars: remark: other sources report otherwise. On the technique in general: In western blotting, separated proteins are transferred to a membrane and probed.

Data set [2] concerns the molecule itself. Kind of data set: SDS/PAGE without reducing agent and immunoblot.

“And” between values parts separate entries of the source, which are not always exact repeats. Equal entries are not always repeated.

The term stoichiometry N denotes the number of molecules, sites or subunits per partner or assembly.

B1: LMAN1/ERGIC53 (endogenous), P49257 31-510 (natural protein)
chain: DGVGGDPAVALPHRRFEYKYSFKGPHLVQSDGTVPFWAHAGNAIPSSDQIRVAPSLKSQRGSVWTKTKAAFENWEVEVTFRVTGRGRIGADGLAIWYAENQGLEGPVFGSADLWNGVGIFFDSFDNDGKKNNPAIVIIGNNGQIHYDHQNDGASQALASCQRDFRNKPYPVRAKITYYQNTLTVMINNGFTPDKNDYEFCAKVENMIIPAQGHFGISAATGGLADDHDVLSFLTFQLTEPGKEPPTPDKEISEKEKEKYQEEFEHFQQELDKKKEEFQKGHPDLQGQPAEEIFESVGDRELRQVFEGQNRIHLEIKQLNRQLDMILDEQRRYVSSLTEEISKRGAGMPGQHGQITQQELDTVVKTQHEILRQVNEMKNSMSETVRLVSGMQHPGSAGGVYETTQHFIDIKEHLHIVKRDIDNLVQRNMPSNEKPKCPELPPFPSCLSTVHFIIFVVVQTVLFIGYIMYRSQQEAAAKKFF
Take B1: the stoichiometry N in data set [1] is 2 and 6.

B2: Myc-LMAN1 C475A (natural protein, UniProt P49257 31-510, looked up)
chain: DGVGGDPAVALPHRRFEYKYSFKGPHLVQSDGTVPFWAHAGNAIPSSDQIRVAPSLKSQRGSVWTKTKAAFENWEVEVTFRVTGRGRIGADGLAIWYAENQGLEGPVFGSADLWNGVGIFFDSFDNDGKKNNPAIVIIGNNGQIHYDHQNDGASQALASCQRDFRNKPYPVRAKITYYQNTLTVMINNGFTPDKNDYEFCAKVENMIIPAQGHFGISAATGGLADDHDVLSFLTFQLTEPGKEPPTPDKEISEKEKEKYQEEFEHFQQELDKKKEEFQKGHPDLQGQPAEEIFESVGDRELRQVFEGQNRIHLEIKQLNRQLDMILDEQRRYVSSLTEEISKRGAGMPGQHGQITQQELDTVVKTQHEILRQVNEMKNSMSETVRLVSGMQHPGSAGGVYETTQHFIDIKEHLHIVKRDIDNLVQRNMPSNEKPKCPELPPFPSALSTVHFIIFVVVQTVLFIGYIMYRSQQEAAAKKFF
B2: the “stoichiometry N” value in data set [2] was 2.

B3: Myc-LMAN1 C466A C475A double mutant (natural protein, UniProt P49257 31-510, looked up)
chain: DGVGGDPAVALPHRRFEYKYSFKGPHLVQSDGTVPFWAHAGNAIPSSDQIRVAPSLKSQRGSVWTKTKAAFENWEVEVTFRVTGRGRIGADGLAIWYAENQGLEGPVFGSADLWNGVGIFFDSFDNDGKKNNPAIVIIGNNGQIHYDHQNDGASQALASCQRDFRNKPYPVRAKITYYQNTLTVMINNGFTPDKNDYEFCAKVENMIIPAQGHFGISAATGGLADDHDVLSFLTFQLTEPGKEPPTPDKEISEKEKEKYQEEFEHFQQELDKKKEEFQKGHPDLQGQPAEEIFESVGDRELRQVFEGQNRIHLEIKQLNRQLDMILDEQRRYVSSLTEEISKRGAGMPGQHGQITQQELDTVVKTQHEILRQVNEMKNSMSETVRLVSGMQHPGSAGGVYETTQHFIDIKEHLHIVKRDIDNLVQRNMPSNEKPKAPELPPFPSALSTVHFIIFVVVQTVLFIGYIMYRSQQEAAAKKFF
With B3, the “stoichiometry N” value in data set [2] is 2.

B4: Myc-LMAN1 C466A (natural protein, UniProt P49257 31-510, looked up)
chain: DGVGGDPAVALPHRRFEYKYSFKGPHLVQSDGTVPFWAHAGNAIPSSDQIRVAPSLKSQRGSVWTKTKAAFENWEVEVTFRVTGRGRIGADGLAIWYAENQGLEGPVFGSADLWNGVGIFFDSFDNDGKKNNPAIVIIGNNGQIHYDHQNDGASQALASCQRDFRNKPYPVRAKITYYQNTLTVMINNGFTPDKNDYEFCAKVENMIIPAQGHFGISAATGGLADDHDVLSFLTFQLTEPGKEPPTPDKEISEKEKEKYQEEFEHFQQELDKKKEEFQKGHPDLQGQPAEEIFESVGDRELRQVFEGQNRIHLEIKQLNRQLDMILDEQRRYVSSLTEEISKRGAGMPGQHGQITQQELDTVVKTQHEILRQVNEMKNSMSETVRLVSGMQHPGSAGGVYETTQHFIDIKEHLHIVKRDIDNLVQRNMPSNEKPKAPELPPFPSCLSTVHFIIFVVVQTVLFIGYIMYRSQQEAAAKKFF
B4: the “stoichiometry N” value in data set [2] stood at 2.

The values are drawn from article PMC5889621 (Proceedings of the National Academy of Sciences of the …, 2018).
